Ends that are not written are not given here.
Experiments:
CRF2R = molecular target: T1, CRF2R; experiment: cell-based or functional assay
T1 sequence (Q13324 whole entry, species assumed, looked up): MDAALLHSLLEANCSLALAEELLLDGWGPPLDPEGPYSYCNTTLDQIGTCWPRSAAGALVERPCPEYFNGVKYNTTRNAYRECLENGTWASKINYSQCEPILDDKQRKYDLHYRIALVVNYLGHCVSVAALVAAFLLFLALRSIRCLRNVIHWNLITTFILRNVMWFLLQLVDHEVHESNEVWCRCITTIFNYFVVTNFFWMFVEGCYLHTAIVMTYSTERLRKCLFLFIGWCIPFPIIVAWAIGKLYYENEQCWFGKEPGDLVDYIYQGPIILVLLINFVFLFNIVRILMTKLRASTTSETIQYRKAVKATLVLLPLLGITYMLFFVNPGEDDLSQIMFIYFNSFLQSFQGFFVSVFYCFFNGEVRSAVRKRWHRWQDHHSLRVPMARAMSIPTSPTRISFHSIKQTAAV

CRF1R = experiment: cell-based or functional assay

Binder	CRF2R EC50 (CRF2R) [nM]	CRF2R Emax (CRF2R) [%]	CRF1R EC50 (CRF1R) [nM]	CRF1R Emax (CRF1R) [%]
IVLSLDVPIGLLQILLEQRARAAREQATTNARILARV-NH2 [SEQ ID NO 137]	36.9	100	> 100	4
IVLSLDVPIGLLQILIEIEKQEKEKQQAANNRLLLDTI-NH2 [SEQ ID NO 154]	10.3	100	> 100	7
IVLSLDVPIGLLQILLEQAAREQATTNARILARV-NH2 [SEQ ID NO 138]	59	46	> 100	5
ZGIVLSLDVPIGLLRKMIEIEKQEKEKQQAANNRLLLDTI (C-terminal amide) [SEQ ID NO 153]	9.28	97	> 100	7
IVLSLDVPIGLLQILLEIEKQEKEKQQAANNRLLLDTI-NH2 [SEQ ID NO 158]	6.37	89	> 100	15
SQEIVLSLDVPIGLLREVLEMTKADQLAQQAHSNRKLLDIA-NH2 [SEQ ID NO 152]	> 100	19	> 100	4
IVLSLDVPIGLLQILLEQAAAREQATTNARILARV-NH2 [SEQ ID NO 139]	42.6	60	> 100	4
SQEPPISLDLTFHLLREVLEQARARAAREQATTNARILARV-NH2 [SEQ ID NO 157]	42	60.6	100	91
SEEPPISLDVPIGLLQEVLEMARAEQLAQQAHSNRKLMEII-NH2 [SEQ ID NO 162]	> 100	7	> 100	11
IVLSLDVPIGLLQILLEQTKADQLAQQAHSNRKLLDIA-NH2 [SEQ ID NO 159]	90.8	62	> 100	9
IVLSLDVPIGLLQTLLELARTQSQRERAEQNRIIFDSV-NH2 [SEQ ID NO 160]	9.15	87	> 100	10
ZGPPISIDLSLELLRKMIEIEKQEKEKQQATTNARILARV (C-terminal amide) [SEQ ID NO 142]	9.08	77	43.5	85.3
ZGPPISIDLPFQLLRKMIEIEKQEKEKQQATTNARILARV (C-terminal amide) [SEQ ID NO 148]	9.45	51.5	295	100
ZGPPISIDLPLQLLRKMIEIEKQEKEKQQATTNARILARV (C-terminal amide) [SEQ ID NO 144]	9.16	85.5	567	100
ZGPPISIDLPTYLLRKMIEIEKQEKEKQQATTNARILARV (C-terminal amide) [SEQ ID NO 151]	36.8	96	1000	19.9
ZGPPISIDLPIQLLRKMIEIEKQEKEKQQATTNARILARV (C-terminal amide) [SEQ ID NO 150]	34.6	70.5	1000	5.7
ZGPPISIDLPFHLLRKMIEIEKQEKEKQQATTNARILARV (C-terminal amide) [SEQ ID NO 146]	8.2	84.5	103	100
ZGPPISIDLPLHLLRKMIEIEKQEKEKQQATTNARILARV (C-terminal amide) [SEQ ID NO 145]	7.8	69	196	91.3
ZGPPISIDLPLELLRKMIEIEKQEKEKQQATTNARILARV (C-terminal amide) [SEQ ID NO 143]	11.1	85.5	232	100
ZGPPISIDLPIYLLRKMIEIEKQEKEKQQATTNARILARV (C-terminal amide) [SEQ ID NO 149]	26.2	95.5	1000	40.7
ZGPPISIDLPFYLLRKMIEIEKQEKEKQQATTNARILARV (C-terminal amide) [SEQ ID NO 147]	6.75	94	102	96
IVLSLDVPIGLLQILLEMARAEQLAQQAHSNRKLMEII-NH2 [SEQ ID NO 164]	2.24	92	> 100	26
SEEPPISLDLTFHLLREVLEMARAEQLAQQAHTNARILARV-NH2 [SEQ ID NO 161]	> 100	88	> 100	77
ZGPPISIDLPFQLLRKMIEIEKQEKEKQQAAANRLLLDTV (C-terminal amide) [SEQ ID NO 15]	6.56	97	85.3	86
ZGPPISIDLPFQLLRKMIEIEKQEKEKQQATTNRLLLDTV (C-terminal amide) [SEQ ID NO 16]	7.88	86	136	98
IVLSLDVPIGLLQEVLEMARAEQLAQQAHSNRKLMEII-NH2 [SEQ ID NO 165]	> 100	75	> 100	19
IVLSLDVPIGLLQILLEQARAAAREQATTNARILARV-NH2 [SEQ ID NO 141]	> 100	29	> 100	7
IVLSLDVPIGLLQILLEQARARAAREQATSNRKLMEII-NH2 [SEQ ID NO 163]	4.49	96	> 100	13
IVLSLDVPIGLLQILLEMTKADQLAQQAHSNRKLLDIA-NH2 [SEQ ID NO 155]	20.6	94	40.6	16
ZGPPISIDLSLELLRKMIEQARARAAREQATTNARILARV (C-terminal amide) [SEQ ID NO 156]	9.29	79	> 100	6

From patent US20030148956A1 (PROCTER AND GAMBLE, published 2003)
